# Earlier results in PMC7443330.
# Target: Spike RBD RBD (SARS-CoV-2) (UniProt P0DTC2)
substance,measurement,value
Spike binding peptide 1 (SBP1),Kd,47 nM
